The test system of data set [1] is HeLa Kyoto. Description: solubility in G1/S (NP-40 vs SDS abundance) (log2 ratio); higher = more soluble. The settings on record: cell cycle stage: G1/S.
For data set [2], the system named is HeLa Kyoto. Description: melting temperature (median over replicates), in situ; higher = more thermally stable.
In data set [3] the test system is HeLa Kyoto. Kind of data set: solubility change mitosis vs G1/S (difference of NP-40 vs SDS log2 ratios) (log2 ratio difference); higher = more soluble in mitosis.
Data set [4] concerns HeLa Kyoto. Description: thermal stability score vs G1/S (z-score of summed log2 fold changes over temperatures); higher = more thermally stable than in G1/S.
The mark [5] stands for this setting: cell cycle stage: early G1 (4.5 h after nocodazole release).
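Throughout, for melting temperature (median over replicates), in situ: HeLa Kyoto cells synchronized by double thymidine or nocodazole block, proteins quantified by TMT10plex mass spectrometry, three independent biological replicates.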
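Throughout, for solubility change mitosis vs G1/S (difference of NP-40 vs SDS log2 ratios): synchronized HeLa Kyoto cells (double thymidine block for G1/S, nocodazole release for mitosis), protein amounts in NP-40 versus SDS lysates quantified by mass spectrometry, three biological replicates.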
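Throughout, for solubility in G1/S (NP-40 vs SDS abundance): HeLa Kyoto cells arrested at G1/S by double thymidine block, proteins quantified by TMT10plex mass spectrometry in mild NP-40 versus SDS extracts, three biological replicates.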
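Throughout, for thermal stability score vs G1/S (z-score of summed log2 fold changes over temperatures): synchronized HeLa Kyoto cells, proteins quantified by TMT10plex mass spectrometry, three biological replicates, mitosis taken 0.5 h after nocodazole release, G1/S directly after double thymidine block.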

Take “MEVNPPKQEHLLALKVMRLTKPTLFTNIPVTCEEKDLPGDLFNQLMRDDPSTVNGAEVLMLGEMLTLPQNFGNIFLGETFSSYISVHNDSNQVVKDILVKADLQTSSQRLNLSASNAAVAELKPDCCIDDVIHHEVKEIGTHILVCAVSYTTQAGEKMYFRKFFKFQVLKPLDVKTKFYNAESDLSSVTDEVFLEAQIQNMTTSPMFMEKVSLEPSIMYNVTELNSVSQAGECVSTFGSRAYLQPMDTRQYLYCLKPKNEFAEKAGIIKGVTVIGKLDIVWKTNLGERGRLQTSQLQRMAPGYGDVRLSLEAIPDTVNLEEPFHITCKITNCSERTMDLVLEMCNTNSIHWCGISGRQLGKLHPSSSLCLALTLLSSVQGLQSISGLRLTDTFLKRTYEYDDIAQVCVVSSAIKVES [TRAPPC13]”: the “solubility in G1/S (log2)” value in the data set with HeLa Kyoto [1] is 0.0799. Besides, the melting temperature is 50 °C in the data set with HeLa Kyoto [2] (cell cycle stage: G1/S) and 49.9 °C in the data set on HeLa Kyoto [2] (cell cycle stage: mitosis). For the same sequence, the “solubility change mitosis (log2)” value with HeLa Kyoto [3] was -0.173. The thermal stability score in the data set on HeLa Kyoto [4] (setting [5]) was -0.207; in the data set on HeLa Kyoto [4] (cell cycle stage: mitosis), 0.0312.

In the case of “MEVPAAGRVPAEGAPTAAVAEVRCPGPAPLRLLEWRVAAGAAVRIGSVLAVFEAAASAQSSGASQSRVASGGCVRPARPERRLRSERAGVVRELCAQPGQVVAPGAVLVRLEGCSHPVVMKGLCAECGQDLTQLQSKNGKQQVPLSTATVSMVHSVPELMVSSEQAEQLGREDQQRLHRNRKLVLMVDLDQTLIHTTEQHCQQMSNKGIFHFQLGRGEPMLHTRLRPHCKDFLEKIAKLYELHVFTFGSRLYAHTIAGFLDPEKKLFSHRILSRDECIDPFSKTGNLRNLFPCGDSMVCIIDDREDVWKFAPNLITVKKYVYFQGTGDMNAPPGSRESQTRKKVNHSRGTEVSEPSPPVRDPEGVTQAPGVEPSNGLEKPARELNGSEAATPRDSPRPGKPDERDIWPPAQAPTSSQELAGAPEPQGSCAQGGRVAPGQRPAQGATGTDLDFDLSSDSESSSESEGTKSSSSASDGESEGKRGRQKPKAAPEGAGALAQGSSLEPGRPAAPSLPGEAEPGAHAPDKEPELGGQEEGERDGLCGLGNGCADRKEAETESQNSELSGVTAGESLDQSMEEEEEEDTDEDDHLIYLEEILVRVHTDYYAKYDRYLNKEIEEAPDIRKIVPELKSKVLADVAIIFSGLHPTNFPIEKTREHYHATALGAKILTRLVLSPDAPDRATHLIAARAGTEKVLQAQECGHLHVVNPDWLWSCLERWDKVEEQLFPLRDDHTKAQRENSPAAFPDREGVPPTALFHPMPVLPKAQPGPEVRIYDSNTGKLIRTGARGPPAPSSSLPIRQEPSSFRAVPPPQPQMFGEELPDAQDGEQPGPSRRKRQPSMSETMPLYTLCKEDLESMDKEVDDILGEGSDDSDSEKRRPEEQEEEPQPRKPGTRRERTLGAPASSERSAAGGRGPRGHKRKLNEEDAASESSRESSNEDEGSSSEADEMAKALEAELNDLM [CTDP1]”, the “solubility in G1/S (log2)” value in the data set on HeLa Kyoto [1] amounted to 0.0911. The melting temperature was 49.2 °C with HeLa Kyoto [2] (cell cycle stage: G1/S) and 50.6 °C with HeLa Kyoto [2] (cell cycle stage: mitosis). The “solubility change mitosis (log2)” value in the data set with HeLa Kyoto [3] was -0.102. The thermal stability score in the data set on HeLa Kyoto [4] (setting [5]) turned out to be 1.52; in the data set on HeLa Kyoto [4] (cell cycle stage: mitosis), 2.78.

“MEVTGVSAPTVTVFISSSLNTFRSEKRYSRSLTIAEFKCKLELLVGSPASCMELELYGVDDKFYSKLDQEDALLGSYPVDDGCRIHVIDHSGARLGEYEDVSRVEKYTISQEAYDQRQDTVRSFLKRSKLGRYNEEERAQQEAEAAQRLAEEKAQASSIPVGSRCEVRAAGQSPRRGTVMYVGLTDFKPGYWIGVRYDEPLGKNDGSVNGKRYFECQAKYGAFVKPAVVTVGDFPEEDYGLDEI [TBCB]”: the “solubility in G1/S (log2)” value in the data set with HeLa Kyoto [1] was 0.266. Besides, the melting temperature in the data set with HeLa Kyoto [2] (cell cycle stage: G1/S) amounted to 49.5 °C; with HeLa Kyoto [2] (cell cycle stage: mitosis) it was 50.2 °C. In the data set with HeLa Kyoto [3], the “solubility change mitosis (log2)” value worked out at 0.119. Also, the thermal stability score is -0.00262 in the data set with HeLa Kyoto [4] (setting [5]) and 0.00665 with HeLa Kyoto [4] (cell cycle stage: mitosis).

With “MFAEAAKTTRPCGMAEFKEKPEAPTEQLDVACGQENLPVGAWPPGAAPAPFQYTPDHVVGPGADIDPTQITFPGCICVKTPCLPGTCSCLRHGENYDDNSCLRDIGSGGKYAEPVFECNVLCRCSDHCRNRVVQKGLQFHFQVFKTHKKGWGLRTLEFIPKGRFVCEYAGEVLGFSEVQRRIHLQTKSDSNYIIAIREHVYNGQVMETFVDPTYIGNIGRFLNHSCEPNLLMIPVRIDSMVPKLALFAAKDIVPEEELSYDYSGRYLNLTVSEDKERLDHGKLRKPCYCGAKSCTAFLPFDSSLYCPVEKSNISCGNEKEPSMCGSAPSVFPSCKRLTLETMKMMLDKKQIRAIFLFEFKMGRKAAETTRNINNAFGPGTANERTVQWWFKKFCKGDESLEDEERSGRPSEVDNDQLRAIIEADPLTTTREVAEELNVNHSTVVRHLKQIGKVKKLDKWVPHELTENQKNRRFEVSSSLILRNHNEPFLDRIVTCDEKWILYDNRRRSAQWLDQEEAPKHFPKPILHPKKVMVTIWWSAAGLIHYSFLNPGETITSEKYAQEIDEMNQKLQRLQLALVNRKGPILLHDNARPHVAQPTLQKLNELGYEVLPHPPYSPDLLPTNYHVFKHLNNFLQGKRFHNQQDAENAFQEFVESQSTDFYATGINQLISRWQKCVDCNGSYFD [SETMAR]”, the “solubility in G1/S (log2)” value with HeLa Kyoto [1] is -0.0719. The melting temperature in the data set with HeLa Kyoto [2] (cell cycle stage: G1/S) worked out at 51.9 °C; with HeLa Kyoto [2] (cell cycle stage: mitosis), 51.7 °C. For the same sequence, in the data set on HeLa Kyoto [3], the “solubility change mitosis (log2)” value was -0.0662. The thermal stability score in the data set on HeLa Kyoto [4] (setting [5]) was found to be 1.42; in the data set on HeLa Kyoto [4] (cell cycle stage: mitosis), 0.689.

Source of the values: the supplement of paper PMC5998384.
